Laboratory results as given in the DeepSol protein solubility set.

Assay: soluble on expression in E. coli; label from the status in PepcDB or PDB records

Row | Sequence | soluble on expression in E. coli
1 | MSKLAEFREAERKLQEQLALLEKLKSDSSLKQELEFKDKLQALMDKYGMTLHNIIAILDPKAPVTVSAAPQRRARALKVYKNPNNGEVVETKGGNHKVLKAWKEQYGSETVESWLQR | not soluble
2 | GMKIDGETRSARKDREIIQAATAAFISKGYDGTSMEEIATKAGASKQTVYKHFTDKETLFGEVVLSTASQVNDIIESVTTLLSEAIFMEGGLQQLARRLIAVLMDEELLKLRRLIIANADRMPQLGRAWYEKGFERMLASTASCFQKLTNRGLIQTGDPYLAASHLFGMLLWIPMNEAMFTGSNRRSKAELERHADASVEAFLAVYGVQPK | soluble
3 | MRKSLVALLLLAASGLAQAQVDLREGHPDRYTVVRGDTLWDISGKFLRQPWKWPELWHANPQIQNPHLIYPGDTLSLVYVDGQPRLVLNRGESRGTIKLSPKIRSTPIAEAIPTIPLDKINSFLLANRIVDDEKTFTSAPYIVAGNAERIVSGTGDRIYARGKFADGQPAYGIFRQGKVYIDPKTKEVLGINADDIGGGEVVATEGDVATLALTRTTQEVRLGDRLFPTEERAVNSTFMPGEPSREVKGEIIDVPRGVTQIGQFDVVTLNRGQRDGLAEGNVLAIYKVGETVRDRVTGESVKIPDERAGLLMVFRTYKKLSYALVLMASRPLSVTDRVQNP | not soluble
4 | MTARDYIWNADGEVGGINDKLRGCLVFSYDRSGWLTSRTGQMYDHDHYYYDKAGNLLTDEYQGAVMDNRLPGYGRDRYRYNEWGELTERRDQQLEWNAQGQLTRVISSNSETRYQYDALGRRISKATSNLHTDRGERSRTTFVWEGFRLLQETTWQGKRTYLYDAEQPYTPVAAITGRGESQKIWYYHTDLTGTVHEVTAPDGTLVWAGYQAGFGENRGDISNSGAYFEQPQRLPGQYFDEETGLHYNLFRYYAPECGRFVSQDPIGLNGGLNLYAYAPNPLGWIDPLGLNSLGIDSNNIFRGDGNYKGGGIGQPKSGTISAQDIIDHLLEHHHHHH | not soluble
5 | MKLLAITSCPNGIAHTYMAAENLQKAADRLGVSIKVETQGGIGVENKLTEEEIREADAIIIAADRSVNKDRFIGKKLLSVGVQDGIRKPEELIQKALNGDIPVY | not soluble
6 | MDKKELVEKIALNTLVFETLGQPEKEREFTIQDLRRWGFDLILGKKNGVRTFFASQAGREVGDKWEEGGATYEIEEILLELPENKKLFAHIETSEGVAYIVAELREGKENLEILRTPAPTLLMAFFKKHRLHELANNLKSVGVITEFYKQRGRESLPLPYKKLPLVARDFLERAKKVEKMAGFGRVALAYFGKTREKDNRFRVSWLLPTIALFDIDISEKANTALEEFK | soluble
7 | MDEEPERTKRWEGGYERTWEILKEDESGSLKATIEDILFKAKRKRVFEHHGQVRLGMMRHLYVVVDGSRTMEDQDLKPNRLTCTLKLLEYFVEEYFDQNPISQIGIIVTKSKRAEKLTELSGNPRKHITSLKKAVDMTCHGEPSLYNSLSIAMQTLKHMPGHTSREVLIIFSSLTTCDPSNIYDLIKTLKAAKIRVSVIGLSAEVRVCTVLARETGGTYHVILDESHYKELLTHHVSPPPASSSSECSLIRMGFPQHTIASLSDQDAKPSFSMAHLDGNTEPGLTLGGYFCPQCRAKYCELPVECKICGLTLVSAPHLARSYHHLFPLDAFQEIPLEEYNGERFCYGCQGELKDQHVYVCAVCQNVFCVDCDVFVHDSLHCCPGCIHKIPAPSGV | soluble
8 | MKYSKEYDEKTVVKINDVKFGEGFTIIAGPCSIESREQIMKVAEFLAEVGIKVLRGGAFKPRTSPYSFQGYGEKALRWMREAADEYGLVTVTEVMDTRHVELVAKYSDILQIGARNSQNFELLKEVGKVENPVLLKRGMGNTIQELLYSAEYIMAQGNENVILCERGIRTFETATRFTLDISAVPVVKELSHLPIIVDPSHPAGRRSLVIPLAKAAYAIGADGIMVEVHPEPEKALSDSQQQLTFDDFLQLLKELEALGWKG | soluble
9 | MAHHHHHHMSTYDKSDQIGYDETDHTLNAELEEMMARTPPEVQRHLQHRIHDGILQRMKEETTRKCITFIQKYEQCVNSQKPYNMKLCYPHRDAMNGCAQEVNREENYQRYRIMYLRGELLKYHEKRTAGKMEAFKVRAPDAIRAWKHDYAPKYMHIMEDLGVAPLGTAAGTAEESTNSK | not soluble
